# B1: Anti-CD3-UCP02-A3 IgG1LALA (antibody, V domains shown)
# VH: EVQLVESGGGLIQPGGSLRLSCAASGFTFRRYYMTWVRQAPGKGLEWVSVIFPQGGTSYADSVKGRFTISRDNSKNTLYLQMNSLRAEDTAVYYCARVHDVLDDVEWFDHWGQGTLVTVSS
# VL: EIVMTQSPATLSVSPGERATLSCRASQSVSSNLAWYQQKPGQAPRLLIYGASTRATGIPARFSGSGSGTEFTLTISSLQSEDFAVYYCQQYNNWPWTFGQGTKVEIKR
# notes: IgG1 LALA
# B2: Anti-CD3-UCP03-A3 IgG1LALA (antibody, V domains shown)
# VH: EVQLLESGGGLVQPGGSLRLSCAASGFTFSSNAMSWVRQAPGKGLEWVSAVGKYGGATSYADSVKGRFTISRDNSKNTLYLQMNSLRAEDTAVYYCARGGPGYSTFYEFDNWGQGTLVTVSS
# VL: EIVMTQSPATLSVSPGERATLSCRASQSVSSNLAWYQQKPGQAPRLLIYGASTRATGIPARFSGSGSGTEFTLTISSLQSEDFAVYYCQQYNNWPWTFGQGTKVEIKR
# notes: IgG1 LALA
# B3: Anti-CD3-UCP03-B1 IgG1LALA (antibody, V domains shown)
# VH: EVQLLESGGGLVQPGGSLRLSCAASGFTFSRYAMTWVRQAPGKGLEWVSGISKYGGATAYADSVKGRFTISRDNSKNTLYLQMNSLRAEDTAVYYCARGGTRFDIWGQGTLVTVSS
# VL: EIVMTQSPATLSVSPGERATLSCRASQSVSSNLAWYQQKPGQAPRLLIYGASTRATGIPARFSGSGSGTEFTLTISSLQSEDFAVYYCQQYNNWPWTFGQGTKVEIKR
# notes: IgG1 LALA
# B4: Anti-CD3-UCP03-C1 IgG1LALA (antibody, V domains shown)
# VH: EVQLLESGGGLVQPGGSLRLSCAASGFTFSQYAMSWVRQAPGKGLEWVSVISPSGATAVYADSVKGRFTISRDNSKNTLYLQMNSLRAEDTAVYYCARGQYDDLDKSGYEFDHWGQGTLVTVSS
# VL: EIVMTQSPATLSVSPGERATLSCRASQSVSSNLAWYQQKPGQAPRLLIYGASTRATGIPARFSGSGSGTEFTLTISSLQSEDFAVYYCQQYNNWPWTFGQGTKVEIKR
# notes: IgG1 LALA
# B5: Anti-CD3-UCP03-C5 IgG1LALA (antibody, V domains shown)
# VH: EVQLVESGGGLIQPGGSLRLSCAASGFTVSDNDMSWVRQAPGKGLEWVSLIYSNGGTHYADSVKGRFTISRDNSKNTLYLQMNSLRAEDTAVYYCARWGISLGEPYFDYWGQGTLVTVSS
# VL: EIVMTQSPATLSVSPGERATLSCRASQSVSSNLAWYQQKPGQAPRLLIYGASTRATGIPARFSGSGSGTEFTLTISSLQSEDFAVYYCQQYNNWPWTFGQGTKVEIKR
# notes: IgG1 LALA
# B6: Anti-CD3-UCP03-E2 IgG1LALA (antibody, V domains shown)
# VH: EVQLVESGGGLIQPGGSLRLSCAASGISVGNNYMSWVRQAPGKGLEWVSVIYPNGRIKYADSVKGRFTISRDNSKNTLYLQMNSLRAEDTAVYYCARGVIDGSYLDFAYWGQGTLVTVSS
# VL: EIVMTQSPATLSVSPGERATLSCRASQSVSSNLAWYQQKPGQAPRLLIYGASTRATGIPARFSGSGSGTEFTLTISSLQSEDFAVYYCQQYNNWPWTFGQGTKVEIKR
# notes: IgG1 LALA
# B7: Anti-CD3-UCP03-F1 IgG1LALA (antibody, V domains shown)
# VH: EVQLLESGGGLVQPGGSLRLSCAASGFPFSHHVMTWVRQAPGKGLEWVSAITQRGEYTLYADSVKGRFTISRDNSKNTLYLQMNSLRAEDTAVYYCARGPVPGGDHAFDYWGQGTLVTVSS
# VL: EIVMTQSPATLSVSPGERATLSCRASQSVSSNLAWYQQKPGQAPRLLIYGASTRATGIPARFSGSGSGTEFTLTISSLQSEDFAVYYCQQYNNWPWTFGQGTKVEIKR
# notes: IgG1 LALA
# B8: Anti-CD3-UCP02-B2 IgG1LALA (antibody, V domains shown)
# VH: EVQLLESGGGLVQPGGSLRLSCAASGFTFSHYVLNWVRQAPGKGLEWVSGISLTGIATIYADSVKGRFTISRDNSKNTLYLQMNSLRAEDTAVYYCARGDPTSAFDVWGQGTLVTVSS
# VL: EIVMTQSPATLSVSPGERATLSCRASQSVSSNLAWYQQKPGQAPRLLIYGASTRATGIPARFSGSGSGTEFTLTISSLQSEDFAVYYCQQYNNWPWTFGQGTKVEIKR
# notes: IgG1 LALA
# B9: Anti-CD3-UCP03-F2 IgG1LALA (antibody, V domains shown)
# VH: EVQLLESGGGLVQPGGSLRLSCAASGFAFSHYAMTWVRQAPGKGLELVSAISQHGGYTAYADSVKGRFTISRDNSKNTLYLQMNSLRAEDTAVYYCARGHPVHAFDFWGQGTLVTVSS
# VL: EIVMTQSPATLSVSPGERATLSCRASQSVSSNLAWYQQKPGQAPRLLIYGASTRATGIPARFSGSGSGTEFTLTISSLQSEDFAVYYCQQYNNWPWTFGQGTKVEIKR
# notes: IgG1 LALA
# B10: Anti-CD3-UCP03-G2 IgG1LALA (antibody, V domains shown)
# VH: QVQLVQSGAEVKKPGSSVKVSCKASGYGFNLYAINWVRQAPGQGLEWMGRIIPEYGHTRYAQKFQGRVTITADESTSTAYMELSSLRSEDTAVYYCARDRYSTYSGGMDYWGQGTLVTVSS
# VL: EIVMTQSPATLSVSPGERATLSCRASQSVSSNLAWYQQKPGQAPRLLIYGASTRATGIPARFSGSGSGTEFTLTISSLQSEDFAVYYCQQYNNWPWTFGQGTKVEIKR
# notes: IgG1 LALA
# B11: Anti-CD3-UCP03-H2 IgG1LALA (antibody, V domains shown)
# VH: EVQLVESGGGLIQPGGSLRLSCAASGFTVRDSYMHWVRQAPGKGLEWVSIIYYTGKTHYADSVKGRFTISRDNSKNTLYLQMNSLRAEDTAVYYCARSQYGYFDYWGQGTLVTVSS
# VL: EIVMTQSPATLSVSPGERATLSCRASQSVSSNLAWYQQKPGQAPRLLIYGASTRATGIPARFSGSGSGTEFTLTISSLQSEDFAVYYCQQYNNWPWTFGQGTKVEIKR
# notes: IgG1 LALA
# B12: Anti-CD3-UCP05-A1 IgG1LALA (antibody, V domains shown)
# VH: EVQLLESGGGLVQPGGSLRLSCAASGFTFSTYAMSWVRQAPGKGLELVSAISRHGGFSRYADSVKGRFTISRDNSKNTLYLQMNSLRAEDTAVYYCARASSYGYDPWGQGTLVTVSS
# VL: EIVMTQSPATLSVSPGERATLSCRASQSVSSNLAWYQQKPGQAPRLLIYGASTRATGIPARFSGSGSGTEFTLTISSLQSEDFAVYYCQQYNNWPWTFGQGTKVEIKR
# notes: IgG1 LALA
# B13: Anti-CD3-UCP05-H1 IgG1LALA (antibody, V domains shown)
# VH: EVQLLESGGGLVQPGGSLRLSCAASGFAFSNSAMSWVRQAPGKGLELVSAISTKGGKTLYADSVKGRFTISRDNSKNTLYLQMNSLRAEDTAVYYCARSSPYGFDYWGQGTLVTVSS
# VL: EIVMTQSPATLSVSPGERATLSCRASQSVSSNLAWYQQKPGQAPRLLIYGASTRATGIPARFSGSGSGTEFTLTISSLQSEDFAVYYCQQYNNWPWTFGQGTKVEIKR
# notes: IgG1 LALA
# B14: Anti-CD3-UCP05-F1 IgG1LALA (antibody, V domains shown)
# VH: EVQLLESGGGLVQPGGSLRLSCAASGFTFRHYAMTWVRQAPGKGLEWVSAITQRGGYTYYADSVKGRFTISRDNSKNTLYLQMNSLRAEDTAVYYCARAGPSGGGFDYWGQGTLVTVSS
# VL: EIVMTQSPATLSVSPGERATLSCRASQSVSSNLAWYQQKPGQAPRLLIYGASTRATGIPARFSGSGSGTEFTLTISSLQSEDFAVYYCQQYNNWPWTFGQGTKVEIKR
# notes: IgG1 LALA
# B15: Anti-CD3-UCP05-A2 IgG1LALA (antibody, V domains shown)
# VH: EVQLLESGGGLVQPGGSLRLSCAASGFSFKIYAMGWVRQAPGKGLEWVSAITQQGGATVYADSVKGRFTISRDNSKNTLYLQMNSLRAEDTAVYYCARPGDLGGGFDIWGQGTLVTVSS
# VL: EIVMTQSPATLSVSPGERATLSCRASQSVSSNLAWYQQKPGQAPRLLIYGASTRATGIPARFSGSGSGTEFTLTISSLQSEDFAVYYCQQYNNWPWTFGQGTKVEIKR
# notes: IgG1 LALA
# B16: Anti-CD3-UCP07-D1 IgG1LALA (antibody, V domains shown)
# VH: EVQLLESGGGLVQPGGSLRLSCAASGFNFNINVMSWVRQAPGKGLEWVSAISQSGGYTLYADSVKGRFTISRDNSKNTLYLQMNSLRAEDTAVYYCARASPYGGGFDYWGQGTLVTVSS
# VL: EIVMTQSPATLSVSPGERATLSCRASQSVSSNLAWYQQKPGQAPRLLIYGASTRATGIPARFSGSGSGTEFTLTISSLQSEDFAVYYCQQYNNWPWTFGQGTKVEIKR
# notes: IgG1 LALA
# B17: Anti-CD3-UCP05-C1 IgG1LALA (antibody, V domains shown)
# VH: QVQLVQSGAEVKKPGSSVKVSCKASGGRFSRQALTWVRQAPGQGLEWMGGIIPDHGRPIYAQKFQGRVTITADESTSTAYMELSSLRSEDTAVYYCARGKGGSVAGWKFDVWGQGTLVTVSS
# VL: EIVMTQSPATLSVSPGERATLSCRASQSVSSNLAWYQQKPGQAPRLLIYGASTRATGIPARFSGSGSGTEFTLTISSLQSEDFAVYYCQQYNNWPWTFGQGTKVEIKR
# notes: IgG1 LALA
# B18: Anti-CD3-UCP02-D2 IgG1LALA (antibody, V domains shown)
# VH: EVQLVESGGGLVKPGGSLRLSCAASGFTFNKAWMGWVRQAPGKGLEWVGRIKSVTDGGITVYAAPVKGRFTISRDDSKNTLYLQMNSLKTEDTAVYYCARVTARYYYFDNWGQGTLVTVSS
# VL: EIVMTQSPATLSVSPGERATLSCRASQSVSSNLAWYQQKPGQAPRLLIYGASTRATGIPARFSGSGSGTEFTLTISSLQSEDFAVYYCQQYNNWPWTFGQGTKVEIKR
# notes: IgG1 LALA
# B19: Anti-CD3-UCP05-D2 IgG1LALA (antibody, V domains shown)
# VH: EVQLLESGGGLVQPGGSLRLSCAASGFTFNIYALGWVRQAPGKGLEWVSAISQNGGYTLYADSVKGRFTISRDNSKNTLYLQMNSLRAEDTAVYYCARLRGGSGMDVWGQGTLVTVSS
# VL: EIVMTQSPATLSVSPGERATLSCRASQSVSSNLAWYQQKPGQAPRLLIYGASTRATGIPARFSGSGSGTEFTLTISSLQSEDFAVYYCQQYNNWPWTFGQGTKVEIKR
# notes: IgG1 LALA
# B20: Anti-CD3-UCP05-G2 IgG1LALA (antibody, V domains shown)
# VH: QVQLVQSGAEVKKPGSSVKVSCKASGGVFNFYAISWVRQAPGQGLEWMGGITPDGGFVKYAQKFQGRVTITADESTSTAYMELSSLRSEDTAVYYCARSPVSLYYGKYYVYYGAFDVWGQGTLVTVSS
# VL: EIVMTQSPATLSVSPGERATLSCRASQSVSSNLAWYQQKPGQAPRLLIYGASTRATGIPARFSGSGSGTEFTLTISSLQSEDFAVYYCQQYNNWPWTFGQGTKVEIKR
# notes: IgG1 LALA
# B21: Anti-CD3-UCP05-H2 IgG1LALA (antibody, V domains shown)
# VH: QVQLVQSGAEVKKPGSSVKVSCKASGGGFSHYALNWVRQAPGQGLEWMGGIIPLTGKTAYAQKFQGRVTITADESTSTAYMELSSLRSEDTAVYYCARKISSARDYWGQGTLVTVSS
# VL: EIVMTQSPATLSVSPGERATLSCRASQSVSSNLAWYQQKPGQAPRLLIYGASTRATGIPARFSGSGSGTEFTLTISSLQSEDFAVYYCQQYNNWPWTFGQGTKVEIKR
# notes: IgG1 LALA
# B22: Anti-CD3-UCP06-A1 IgG1LALA (antibody, V domains shown)
# VH: QVQLVQSGAEVKKPGSSVKVSCKASGGHFRGYGISWVRQAPGQGLEWMGEIIPLRGFTIYAQKFQGRVTITADESTSTAYMELSSLRSEDTAVYYCARGSYVDSSYYYYDGFDVWGQGTLVTVSS
# VL: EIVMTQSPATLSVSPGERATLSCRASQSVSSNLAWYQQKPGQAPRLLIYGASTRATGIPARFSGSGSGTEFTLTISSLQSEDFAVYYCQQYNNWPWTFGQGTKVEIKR
# notes: IgG1 LALA
# B23: Anti-CD3-UCP07-A1 IgG1LALA (antibody, V domains shown)
# VH: EVQLVESGGGLVKPGGSLRLSCAASGFTFSDYAVNWVRQAPGKGLEWVGRIKSKNEGGTGYAAPVKGRFTISRDDSKNTLYLQMNSLKTEDTAVYYCAREPSYYRDGAADYWGQGTLVTVSS
# VL: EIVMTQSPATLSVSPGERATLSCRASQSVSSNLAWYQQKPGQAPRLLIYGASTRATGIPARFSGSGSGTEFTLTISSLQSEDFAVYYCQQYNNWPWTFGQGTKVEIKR
# notes: IgG1 LALA
# B24: Anti-CD3-UCP07-A3 IgG1LALA (antibody, V domains shown)
# VH: EVQLLESGGGLVQPGGSLRLSCAASGVSFREYVMAWVRQAPGKGLEWVSVISQYGGNTYYADSVKGRFTISRDNSKNTLYLQMNSLRAEDTAVYYCARSGGSVPFDYWGQGTLVTVSS
# VL: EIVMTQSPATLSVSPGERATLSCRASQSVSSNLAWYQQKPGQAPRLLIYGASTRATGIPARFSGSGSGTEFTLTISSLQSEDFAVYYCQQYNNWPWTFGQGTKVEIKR
# notes: IgG1 LALA
# B25: Anti-CD3-UCP07-B3 IgG1LALA (antibody, V domains shown)
# VH: EVQLVESGGGLVKPGGSLRLSCAASGFDFNAAWMTWVRQAPGKGLEWVGRIKSEKNGGKSVYAAPVKGRFTISRDDSKNTLYLQMNSLKTEDTAVYYCARGGRLSSYFDPWGQGTLVTVSS
# VL: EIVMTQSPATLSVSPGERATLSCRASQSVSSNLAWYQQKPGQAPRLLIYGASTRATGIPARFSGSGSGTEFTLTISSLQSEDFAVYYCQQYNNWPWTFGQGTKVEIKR
# notes: IgG1 LALA
# B26: Anti-CD3-UCP07-C3 IgG1LALA (antibody, V domains shown)
# VH: QVQLVQSGAEVKKPGSSVKVSCKASGGSFSRYAIGWVRQAPGQGLEWMGGIIPDVGIAFYAQKFQGRVTITADESTSTAYMELSSLRSEDTAVYYCAREYHYVGAFDIWGQGTLVTVSS
# VL: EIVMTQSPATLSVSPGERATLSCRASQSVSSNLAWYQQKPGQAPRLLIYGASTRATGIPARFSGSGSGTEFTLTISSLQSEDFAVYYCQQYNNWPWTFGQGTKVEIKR
# notes: IgG1 LALA
# B27: Anti-CD3-UCP07-E1 IgG1LALA (antibody, V domains shown)
# VH: EVQLLESGGGLVQPGGSLRLSCAASGFTFSRNAMNWVRQAPGKGLEWVSSISRIGGFTIYADSVKGRFTISRDNSKNTLYLQMNSLRAEDTAVYYCARVGSGGKAFDVWGQGTLVTVSS
# VL: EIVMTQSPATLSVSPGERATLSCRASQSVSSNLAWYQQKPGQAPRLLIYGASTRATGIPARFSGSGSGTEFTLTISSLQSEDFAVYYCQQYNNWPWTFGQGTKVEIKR
# notes: IgG1 LALA
# B28: Anti-CD3-UCP07-E2 IgG1LALA (antibody, V domains shown)
# VH: EVQLLESGGGLVQPGGSLRLSCAASGFPFSNYAMSWVRQAPGKGLEWVSAISRKGGFTEYADSVKGRFTISRDNSKNTLYLQMNSLRAEDTAVYYCARASYLGGFAYWGQGTLVTVSS
# VL: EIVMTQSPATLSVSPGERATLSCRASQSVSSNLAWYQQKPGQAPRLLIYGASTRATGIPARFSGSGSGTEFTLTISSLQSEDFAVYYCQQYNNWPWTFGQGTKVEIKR
# notes: IgG1 LALA
# B29: Anti-CD3-UCP07-F2 IgG1LALA (antibody, V domains shown)
# VH: QVQLVQSGAEVKKPGSSVKVSCKASGGKFNKYVIGWVRQAPGQGLEWMGGVIPLKGQSKYAQKFQGRVTITADESTSTAYMELSSLRSEDTAVYYCARGRYYGDYSWKFDYWGQGTLVTVSS
# VL: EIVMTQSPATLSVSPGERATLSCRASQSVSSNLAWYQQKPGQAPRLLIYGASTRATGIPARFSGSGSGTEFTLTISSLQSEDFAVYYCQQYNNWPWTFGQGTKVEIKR
# notes: IgG1 LALA
# B30: Anti-CD38-UCP02-A7 Fab (Fab, V domains shown)
# VH: EVQLLESGGGLVQPGGSLRLSCAASGFTFSFYDMSWVRQAPGKGLEWVSTITLHGGDTYYADSVKGRFTISRDNSKNTLYLQMNSLRAEDTAVYYCARDPSYIYSTSGYFDYWGQGTLVTVSS
# VL: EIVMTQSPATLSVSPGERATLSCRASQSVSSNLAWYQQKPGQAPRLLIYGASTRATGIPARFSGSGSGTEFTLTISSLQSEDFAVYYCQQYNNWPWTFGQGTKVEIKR
# notes: Fab
# B31: Anti-CD38-UCP02-B1 Fab (Fab, V domains shown)
# VH: QVQLVQSGAEVKKPGSSVKVSCKASGGQFSFYAINWVRQAPGQGLEWMGEIIPDYGVTHYAQKFQGRVTITADESTSTAYMELSSLRSEDTAVYYCARWSYTYGIRYYYKLFDPWGQGTLVTVSS
# VL: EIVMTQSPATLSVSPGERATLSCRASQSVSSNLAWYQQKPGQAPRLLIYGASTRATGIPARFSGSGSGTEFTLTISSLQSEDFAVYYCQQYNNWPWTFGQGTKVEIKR
# notes: Fab
# Molecular target: T1, human CD3 on cells (HPB-ALL cells, primary human T cells) (human, UniProt P07766 23-207)
# T1 construct: whole, on cells; only the epsilon chain is written
# T1 sequence (P07766 23-207): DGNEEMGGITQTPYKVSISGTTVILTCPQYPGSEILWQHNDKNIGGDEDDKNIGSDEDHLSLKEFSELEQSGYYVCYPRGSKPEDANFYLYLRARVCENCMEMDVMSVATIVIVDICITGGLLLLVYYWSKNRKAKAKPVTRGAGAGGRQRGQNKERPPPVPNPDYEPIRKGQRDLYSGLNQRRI
# Experiment: flow cytometry, HPB-ALL WT;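 also: binding read by flow cytometry as PE geometric mean fluorescence intensity on live single cells, dead cells excluded with SYTOX Green, only samples with at least 200 gated cells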
# Protocol: Cells were then washed twice and resuspended in 100 μl of FACS buffer containing SYTOX Green dead cell stain (ThermoFisher Scientific, catalog NO: S34860) diluted 1/2000. Samples were acquired on a CytoFlex instruments (Beckman Coulter). Cells were gated based on size on FSC vs SSC and debris, doublets and dead cells were excluded. Cells were analyzed for PE-geometric mean (geomean) fluorescence intensity using FlowJo software. Only samples showing at least 200 cells in final gate were considered in the further steps of the analysis.
row,Binder,binding result
1,B1,no binding (tested: 800 nM)
2,B2,no binding (tested: 800 nM)
3,B3,no binding (tested: 800 nM)
4,B4,no binding (tested: 800 nM)
5,B5,no binding (tested: 800 nM)
6,B6,no binding (tested: 800 nM)
7,B7,no binding (tested: 800 nM)
8,B8,no binding (tested: 800 nM)
9,B9,no binding (tested: 800 nM)
10,B10,no binding (tested: 800 nM)
11,B11,no binding (tested: 800 nM)
12,B12,no binding (tested: 800 nM)
13,B13,no binding (tested: 800 nM)
14,B14,no binding (tested: 800 nM)
15,B15,no binding (tested: 800 nM)
16,B16,no binding (tested: 800 nM)
17,B17,no binding (tested: 800 nM)
18,B18,no binding (tested: 800 nM)
19,B19,no binding (tested: 800 nM)
20,B20,no binding (tested: 800 nM)
21,B21,no binding (tested: 800 nM)
22,B22,no binding (tested: 800 nM)
23,B23,no binding (tested: 800 nM)
24,B24,no binding (tested: 800 nM)
25,B25,no binding (tested: 800 nM)
26,B26,no binding (tested: 800 nM)
27,B27,no binding (tested: 800 nM)
28,B28,no binding (tested: 800 nM)
29,B29,no binding (tested: 800 nM)

# Molecular target: T2, Biotinylated Human CD38 Protein, Avitag, His Tag (Acrobiosystems CD8-H82E7) (human, UniProt P28907 43-300, biotinylated)
# T2 construct: bought protein; also called biotinylated recombinant human CD38 protein; human CD38-avi-his
# Experiment: SPR, Fab as analyte, immobilised biotinylated human CD38;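 also: biacore T200 at 25 °C, single-cycle kinetics with Fab from 7.8 to 2000 nM, 3 min association then 5 min dissociation, fitted with a 1:1 Langmuir model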
# Protocol: Surface plasmon resonance (SPR) was used to measure the binding affinities of the Fab fragments for human and cynomolgus monkey CD38. Affinities were measured on a Biacore T200 instrument (Cytiva Life Sciences) at 25° C. and analyzed with the Biacore T200 Evaluation Software (v3.1).
# The affinities to human and cynomolgus monkey CD38 were assessed by immobilizing CD38 and using Fab fragments as analyte. […] Fab fragments were injected in single cycle kinetic at different concentrations ranging from 7.8 to 2000 nM, in HBS-EP+ buffer (Cytiva Life Sciences, catalog NO: BR100669) at a flow rate of 30 μl/min for 3 min on flow-path 1 and 2 (flow-path 1 being used as reference). Dissociation was monitored for 5 min. […] Experimental data were processed using the 1:1 Langmuir kinetic fitting model.
row,Binder,Kd [nM]
1,B30,71.1
2,B31,595

# Source: patent US20240132615A1 (ICHNOS SCIENCES, published 2024)
